Reference: paper PMC9800250

Columns and labels:
[1] = substrate: CC(C)=CCC/C(C)=C/COP(=O)(O)OP(=O)(O)O; assay: HPLC of S-adenosylhomocysteine formation, steady state; assay type: biochemical, Streptomyces coelicolor; conditions: 100 μM SAM, 10 mM MgCl2, pH 7.0, 30°C, 20 min, 2 μM enzyme
[2] = substrate: CC(C)=CCOP(=O)(O)OP(=O)(O)O; assay: as above; assay type: biochemical, Streptomyces coelicolor; conditions: 100 μM SAM, 10 mM MgCl2, pH 7.0, 30°C, 20 min, 5 μM enzyme

Row | Protein | Km [1] | kcat [1] | Km [2] | kcat [2]
1 | ScGPPC2MT (GPP C2-methyltransferase) (Streptomyces coelicolor A3(2)) (protein) MTTETTTATATAKIPAPATPYQEDIARYWNNEARPVNLRLGDVDGLYHHHYGIGPVDRAALGDPEHSEYEKKVIAELHRLESAQAEFLMDHLGQAGPDDTLVDAGCGRGGSMVMAHRRFGSRVEGVTLSAAQADFGNRRARELRIDDHVRSRVCNMLDTPFDKGAVTASWNNESTMYVDLHDLFSEHSRFLKVGGRYVTITGCWNPRYGQPSKWVSQINAHFECNIHSRREYLRAMADNRLVPHTIVDLTPDTLPYWELRATSSLVTGIEKAFIESYRDGSFQYVLIAADRV | 0.88 ± 0.09 µM | (4.90 ± 0.16) × 10^−4 s^−1 |  | 
2 | ScGPPC2MT (GPP C2-methyltransferase) (Streptomyces coelicolor A3(2); F222Y/G202M) (protein) MTTETTTATATAKIPAPATPYQEDIARYWNNEARPVNLRLGDVDGLYHHHYGIGPVDRAALGDPEHSEYEKKVIAELHRLESAQAEFLMDHLGQAGPDDTLVDAGCGRGGSMVMAHRRFGSRVEGVTLSAAQADFGNRRARELRIDDHVRSRVCNMLDTPFDKGAVTASWNNESTMYVDLHDLFSEHSRFLKVGGRYVTITMCWNPRYGQPSKWVSQINAHYECNIHSRREYLRAMADNRLVPHTIVDLTPDTLPYWELRATSSLVTGIEKAFIESYRDGSFQYVLIAADRV |  |  | 5.33 ± 0.81 µM | (9.59 ± 0.25) × 10^−5 s^−1
